Reference: PMC1919509 (Nucleic Acids Research, 2007)

Molecular target: Single-stranded DNA binding protein (SSB), over-expressed recombinant (E. coli, UniProt P0AGE0 1-178)
Assay: cross-linking

Single-stranded DNA binding protein (SSB), over-expressed recombinant, sequence (P0AGE0 whole entry): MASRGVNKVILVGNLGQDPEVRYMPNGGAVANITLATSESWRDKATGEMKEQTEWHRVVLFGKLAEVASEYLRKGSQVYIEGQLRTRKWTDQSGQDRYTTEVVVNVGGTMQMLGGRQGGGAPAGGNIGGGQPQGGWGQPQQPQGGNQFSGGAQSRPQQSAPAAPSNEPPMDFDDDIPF

stoichiometry N: 2 ExoIX molecules per SSB tetramer
B1: Exonuclease IX (ExoIX), native recombinant (natural protein, E. coli, UniProt P38506 1-251, looked up)
chain: MAVHLLIVDALNLIRRIHAVQGSPCVETCQHALDQLIMHSQPTHAVAVFDDENRSSGWRHQRLPDYKAGRPPMPEELHDEMPALRAAFEQRGVPCWSTSGNEADDLAATLAVKVTQAGHQATIVSTDKGYCQLLSPTLRIRDYFQKRWLDAPFIDKEFGVQPQQLPDYWGLAGISSSKVPGVAGIGPKSATQLLVEFQSLEGIYENLDAVAEKWRKKLETHKEMAFLCRDIARLQTDLHIDGNLQQLRLVR
